The source of these data is patent US20160263155A1, “T CELL RECEPTORS DIRECTED AGAINST THE PREFERENTIALLY EXPRESSED ANTIGEN OF MELANOMA AND USES THEREOF” (LEIDEN UNIVERSITY MEDICAL CENTER, priority 2015, published 2016).

B1: D330A-Y153A (protein)
chain: GFGDVGALESLRGNADLAAILSMEPCGHCLIINNVNFCRESGLRTRTGSNIDCEKLRRRFSSLHFMVEVKGDLTAKKMVLALLELAQQDHGALDCCVVVILSHGCQASHLQFPGAVYGTDGCPVSVEKIVNIFNGTSCPSLGGKPKLFFIQACGGEQKDHGFEVASTSPEDESPGSNPEPDATPFQEGLRTFDQLAAISSLPTPSDIFVSYSTFPGFVSWRDPKSGSWYVETLDDIFEQWAHSEDLQSLLLRVANAVSVKGIYKQMPGCFNFLRKKLFFKTS
B2: G402I (protein)
chain: GFGDVGALESLRGNADLAYILSMEPCGHCLIINNVNFCRESGLRTRTGSNIDCEKLRRRFSSLHFMVEVKGDLTAKKMVLALLELAQQDHGALDCCVVVILSHGCQASHLQFPGAVYGTDGCPVSVEKIVNIFNGTSCPSLGGKPKLFFIQACGGEQKDHGFEVASTSPEDESPGSNPEPDATPFQEGLRTFDQLDAISSLPTPSDIFVSYSTFPGFVSWRDPKSGSWYVETLDDIFEQWAHSEDLQSLLLRVANAVSVKGIYKQMPICFNFLRKKLFFKTS
B3: G402Y (protein)
chain: GFGDVGALESLRGNADLAYILSMEPCGHCLIINNVNFCRESGLRTRTGSNIDCEKLRRRFSSLHFMVEVKGDLTAKKMVLALLELAQQDHGALDCCVVVILSHGCQASHLQFPGAVYGTDGCPVSVEKIVNIFNGTSCPSLGGKPKLFFIQACGGEQKDHGFEVASTSPEDESPGSNPEPDATPFQEGLRTFDQLDAISSLPTPSDIFVSYSTFPGFVSWRDPKSGSWYVETLDDIFEQWAHSEDLQSLLLRVANAVSVKGIYKQMPYCFNFLRKKLFFKTS
B4: G402A (protein)
chain: GFGDVGALESLRGNADLAYILSMEPCGHCLIINNVNFCRESGLRTRTGSNIDCEKLRRRFSSLHFMVEVKGDLTAKKMVLALLELAQQDHGALDCCVVVILSHGCQASHLQFPGAVYGTDGCPVSVEKIVNIFNGTSCPSLGGKPKLFFIQACGGEQKDHGFEVASTSPEDESPGSNPEPDATPFQEGLRTFDQLDAISSLPTPSDIFVSYSTFPGFVSWRDPKSGSWYVETLDDIFEQWAHSEDLQSLLLRVANAVSVKGIYKQMPACFNFLRKKLFFKTS
B5: C403P (protein)
chain: GFGDVGALESLRGNADLAYILSMEPCGHCLIINNVNFCRESGLRTRTGSNIDCEKLRRRFSSLHFMVEVKGDLTAKKMVLALLELAQQDHGALDCCVVVILSHGCQASHLQFPGAVYGTDGCPVSVEKIVNIFNGTSCPSLGGKPKLFFIQACGGEQKDHGFEVASTSPEDESPGSNPEPDATPFQEGLRTFDQLDAISSLPTPSDIFVSYSTFPGFVSWRDPKSGSWYVETLDDIFEQWAHSEDLQSLLLRVANAVSVKGIYKQMPGPFNFLRKKLFFKTS
B6: D330A-T317E (protein)
chain: GFGDVGALESLRGNADLAYILSMEPCGHCLIINNVNFCRESGLRTRTGSNIDCEKLRRRFSSLHFMVEVKGDLTAKKMVLALLELAQQDHGALDCCVVVILSHGCQASHLQFPGAVYGTDGCPVSVEKIVNIFNGTSCPSLGGKPKLFFIQACGGEQKDHGFEVASTSPEDESPGSNPEPDAEPFQEGLRTFDQLAAISSLPTPSDIFVSYSTFPGFVSWRDPKSGSWYVETLDDIFEQWAHSEDLQSLLLRVANAVSVKGIYKQMPGCFNFLRKKLFFKTS
B7: D330A-Y153F (protein)
chain: GFGDVGALESLRGNADLAFILSMEPCGHCLIINNVNFCRESGLRTRTGSNIDCEKLRRRFSSLHFMVEVKGDLTAKKMVLALLELAQQDHGALDCCVVVILSHGCQASHLQFPGAVYGTDGCPVSVEKIVNIFNGTSCPSLGGKPKLFFIQACGGEQKDHGFEVASTSPEDESPGSNPEPDATPFQEGLRTFDQLAAISSLPTPSDIFVSYSTFPGFVSWRDPKSGSWYVETLDDIFEQWAHSEDLQSLLLRVANAVSVKGIYKQMPGCFNFLRKKLFFKTS
B8: G402Q (protein)
chain: GFGDVGALESLRGNADLAYILSMEPCGHCLIINNVNFCRESGLRTRTGSNIDCEKLRRRFSSLHFMVEVKGDLTAKKMVLALLELAQQDHGALDCCVVVILSHGCQASHLQFPGAVYGTDGCPVSVEKIVNIFNGTSCPSLGGKPKLFFIQACGGEQKDHGFEVASTSPEDESPGSNPEPDATPFQEGLRTFDQLDAISSLPTPSDIFVSYSTFPGFVSWRDPKSGSWYVETLDDIFEQWAHSEDLQSLLLRVANAVSVKGIYKQMPQCFNFLRKKLFFKTS
B9: ^402GCFNF^406YCSTL: Caspase-9 homodimerization domain mutant (SEQ ID NOS 95 and 100) (Casp-2) (protein, UniProt P55211 1-416, looked up, variant G402Y F404S N405T F406L)
chain: MDEADRRLLRRCRLRLVEELQVDQLWDALLSRELFRPHMIEDIQRAGSGSRRDQARQLIIDLETRGSQALPLFISCLEDTGQDMLASFLRTNRQAAKLSKPTLENLTPVVLRPEIRKPEVLRPETPRPVDIGSGGFGDVGALESLRGNADLAYILSMEPCGHCLIINNVNFCRESGLRTRTGSNIDCEKLRRRFSSLHFMVEVKGDLTAKKMVLALLELAQQDHGALDCCVVVILSHGCQASHLQFPGAVYGTDGCPVSVEKIVNIFNGTSCPSLGGKPKLFFIQACGGEQKDHGFEVASTSPEDESPGSNPEPDATPFQEGLRTFDQLDAISSLPTPSDIFVSYSTFPGFVSWRDPKSGSWYVETLDDIFEQWAHSEDLQSLLLRVANAVSVKGIYKQMPYCSTLLRKKLFFKTS
B10: ^402GCFNF^406CIVSM: Caspase-9 homodimerization domain mutant (SEQ ID NOS 95 and 101) (Casp-3) (protein, UniProt P55211 1-416, looked up, variant G402C C403I F404V N405S F406M)
chain: MDEADRRLLRRCRLRLVEELQVDQLWDALLSRELFRPHMIEDIQRAGSGSRRDQARQLIIDLETRGSQALPLFISCLEDTGQDMLASFLRTNRQAAKLSKPTLENLTPVVLRPEIRKPEVLRPETPRPVDIGSGGFGDVGALESLRGNADLAYILSMEPCGHCLIINNVNFCRESGLRTRTGSNIDCEKLRRRFSSLHFMVEVKGDLTAKKMVLALLELAQQDHGALDCCVVVILSHGCQASHLQFPGAVYGTDGCPVSVEKIVNIFNGTSCPSLGGKPKLFFIQACGGEQKDHGFEVASTSPEDESPGSNPEPDATPFQEGLRTFDQLDAISSLPTPSDIFVSYSTFPGFVSWRDPKSGSWYVETLDDIFEQWAHSEDLQSLLLRVANAVSVKGIYKQMPCIVSMLRKKLFFKTS
B11: ^402GCFNF^406QPTFT: Caspase-9 homodimerization domain mutant (SEQ ID NOS 95 and 102) (Casp-8) (protein, UniProt P55211 1-416, looked up, variant G402Q C403P F404T N405F F406T)
chain: MDEADRRLLRRCRLRLVEELQVDQLWDALLSRELFRPHMIEDIQRAGSGSRRDQARQLIIDLETRGSQALPLFISCLEDTGQDMLASFLRTNRQAAKLSKPTLENLTPVVLRPEIRKPEVLRPETPRPVDIGSGGFGDVGALESLRGNADLAYILSMEPCGHCLIINNVNFCRESGLRTRTGSNIDCEKLRRRFSSLHFMVEVKGDLTAKKMVLALLELAQQDHGALDCCVVVILSHGCQASHLQFPGAVYGTDGCPVSVEKIVNIFNGTSCPSLGGKPKLFFIQACGGEQKDHGFEVASTSPEDESPGSNPEPDATPFQEGLRTFDQLDAISSLPTPSDIFVSYSTFPGFVSWRDPKSGSWYVETLDDIFEQWAHSEDLQSLLLRVANAVSVKGIYKQMPQPTFTLRKKLFFKTS

Chain of chimeric Caspase-9 polypeptide (as listed by the source, change not shown): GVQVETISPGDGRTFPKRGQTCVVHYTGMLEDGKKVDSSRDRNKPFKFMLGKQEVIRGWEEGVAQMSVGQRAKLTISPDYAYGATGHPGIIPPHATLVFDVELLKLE

The subject of this experiment is chimeric Caspase-9 polypeptide. Kind of experiment: Caspase mutant classes and basal activity (Table 3). It counts as cell-based, human. The note with it: class heading of Table 3.
Consider B1, for which the “Basal Activity” value is listed as “dead”. The result for B2 reads “dead”; that for B3, “dead”. Regarding B4, the “Basal Activity” value was “dead”. The result for B5 reads “dead”. The result for B6 reads “dead”; that for B7, “dead”; that for B8, “dead”. The result for B9 reads “dead”.

On to B10, for which the “Basal Activity” value is on record as “dead”. The result for B11 reads “dead”.
